In US6787341B2, “Pharmacological targeting of bacterial DNA ligase for treatment and prevention of bacterial infections” (priority 2001, dated 2004):

Test system: NC(=O)c1ccc[n+]([C@@H]2O[C@H](COP(=O)([O-])OP(=O)(O)OC[C@H]3O[C@@H](n4cnc5c(N)ncnc54)[C@H](O)[C@@H]3O)[C@@H](O)[C@H]2O)c1
Experiment: Nucleotide cofactor specificity of AmEPV ligase in nick ligation
Format: biochemical, Amsacta moorei entomopoxvirus
Conditions: other: from double-reciprocal plot, sub-saturating enzyme; pH 7.5; 22.0 °C
Method: Reaction mixtures (20 μl) containing 50 mM Tris-HCl (pH 7.5), 10 mM (NH4)2SO4, 5 mM DTT, 5 mM MgCl2, 1 pmol of ^32P-labeled nicked DNA, 32 ng of AmEPV ligase, and 50 μM of the indicated nucleotide were incubated for 30 min at 22° C. A control reaction contained no added nucleotide cofactor (none). The reaction products were resolved by polyacrylamide gel electrophoresis. An autoradiogram of the gel is shown.
A low level of nick ligation could be detected in the absence of added nucleotide (FIG. 6). Cofactor-independent ligation was attributed to pre-adenylated ligase in the enzyme preparation. […] Inclusion of NAD^+ in the reaction mixture stimulated nick ligation such that ˜90% of the input substrate molecules were sealed (FIG. 6). […] Indeed, none of the standard rNTPs or dNTPs were able to satisfy the requirement of AmEPV ligase for a high energy cofactor (FIG. 6). […] A Km of 9 μM NAD^+ was calculated from a double-reciprocal plot of the data.

## AmEPV ligase (Betaentomopoxvirus amoorei)
  Km: 9 µM
